For assay [1], the target named is HIV-1 YU-2 envelope gp120 with a C-terminal hexa-histidine tag (HIV-1 (YU-2 strain)) (UniProt P35961). The experiment in a line: ITC. Background: In ITC the heat of successive injections is recorded.
Assay [2] has the same target. The experiment in a line: SPR.
Assay [3] has the same target. Kind of assay: SPR. The source holds these as a separate data set.
Assay [4] has the same target.

The results in this text go back to paper PMC3810028.

pIC50, pKd: −log10 of the molar value. Like-named read-outs stand apart in the source and are kept apart here.

On to “peptide triazole KR-41 (UM-24 with Trp 6 replaced by L-3-benzothienylalanine, Bta)”, for which, in assay [1], the dH was -14.9 kcalmol^−1. The substance also showed a pIC50 in assay [2] of 7.29.
“peptide triazole KR-42 (DCit-DAsn-DAsn-DIle-LFtP-LBta-DSer-NH2)”: in assay [1], the pKd is 6.55 and the dH was -14.6 kcalmol^−1. Moreover, the pIC50 in assay [2] was 6.68. The substance also gave a pIC50 in assay [3] of 6.93.
In the case of “peptide triazole UM-24 (Cit-N-N-I-X-W-S-CONH2)”, in assay [1], the pKd is 7.68 and the dH is -14.1 kcalmol^−1. In assay [2], the pIC50 is 7.15. The substance further showed a pIC50 in assay [3] of 7.35. The substance also had an EC50 of inhibition of single-round infection by HIV-1BaL (Env of BaL, not YU-2) in assay [4] of 6200 nM.

One may read the pIC50 as the IC50 on a negative log10 scale, so that one unit is a factor of ten. A low value points to a large IC50. As a reminder, the pKd is the Kd on a negative log10 scale, so that one unit is a factor of ten.
